The data set deals with Pol epsilon WT (holoenzyme) (Saccharomyces cerevisiae, UniProt P21951;P24482;P27344;Q04603 1-2222;1-689;1-201;1-196). The data set is described as follows: EMSA. A general note: Mobility shift assays separate free from complexed probe on a gel.

Results on one molecule are retold here after publication PMC11920795.

Pol epsilon WT (holoenzyme), sequence (P21951 whole entry, chain 1 of 4): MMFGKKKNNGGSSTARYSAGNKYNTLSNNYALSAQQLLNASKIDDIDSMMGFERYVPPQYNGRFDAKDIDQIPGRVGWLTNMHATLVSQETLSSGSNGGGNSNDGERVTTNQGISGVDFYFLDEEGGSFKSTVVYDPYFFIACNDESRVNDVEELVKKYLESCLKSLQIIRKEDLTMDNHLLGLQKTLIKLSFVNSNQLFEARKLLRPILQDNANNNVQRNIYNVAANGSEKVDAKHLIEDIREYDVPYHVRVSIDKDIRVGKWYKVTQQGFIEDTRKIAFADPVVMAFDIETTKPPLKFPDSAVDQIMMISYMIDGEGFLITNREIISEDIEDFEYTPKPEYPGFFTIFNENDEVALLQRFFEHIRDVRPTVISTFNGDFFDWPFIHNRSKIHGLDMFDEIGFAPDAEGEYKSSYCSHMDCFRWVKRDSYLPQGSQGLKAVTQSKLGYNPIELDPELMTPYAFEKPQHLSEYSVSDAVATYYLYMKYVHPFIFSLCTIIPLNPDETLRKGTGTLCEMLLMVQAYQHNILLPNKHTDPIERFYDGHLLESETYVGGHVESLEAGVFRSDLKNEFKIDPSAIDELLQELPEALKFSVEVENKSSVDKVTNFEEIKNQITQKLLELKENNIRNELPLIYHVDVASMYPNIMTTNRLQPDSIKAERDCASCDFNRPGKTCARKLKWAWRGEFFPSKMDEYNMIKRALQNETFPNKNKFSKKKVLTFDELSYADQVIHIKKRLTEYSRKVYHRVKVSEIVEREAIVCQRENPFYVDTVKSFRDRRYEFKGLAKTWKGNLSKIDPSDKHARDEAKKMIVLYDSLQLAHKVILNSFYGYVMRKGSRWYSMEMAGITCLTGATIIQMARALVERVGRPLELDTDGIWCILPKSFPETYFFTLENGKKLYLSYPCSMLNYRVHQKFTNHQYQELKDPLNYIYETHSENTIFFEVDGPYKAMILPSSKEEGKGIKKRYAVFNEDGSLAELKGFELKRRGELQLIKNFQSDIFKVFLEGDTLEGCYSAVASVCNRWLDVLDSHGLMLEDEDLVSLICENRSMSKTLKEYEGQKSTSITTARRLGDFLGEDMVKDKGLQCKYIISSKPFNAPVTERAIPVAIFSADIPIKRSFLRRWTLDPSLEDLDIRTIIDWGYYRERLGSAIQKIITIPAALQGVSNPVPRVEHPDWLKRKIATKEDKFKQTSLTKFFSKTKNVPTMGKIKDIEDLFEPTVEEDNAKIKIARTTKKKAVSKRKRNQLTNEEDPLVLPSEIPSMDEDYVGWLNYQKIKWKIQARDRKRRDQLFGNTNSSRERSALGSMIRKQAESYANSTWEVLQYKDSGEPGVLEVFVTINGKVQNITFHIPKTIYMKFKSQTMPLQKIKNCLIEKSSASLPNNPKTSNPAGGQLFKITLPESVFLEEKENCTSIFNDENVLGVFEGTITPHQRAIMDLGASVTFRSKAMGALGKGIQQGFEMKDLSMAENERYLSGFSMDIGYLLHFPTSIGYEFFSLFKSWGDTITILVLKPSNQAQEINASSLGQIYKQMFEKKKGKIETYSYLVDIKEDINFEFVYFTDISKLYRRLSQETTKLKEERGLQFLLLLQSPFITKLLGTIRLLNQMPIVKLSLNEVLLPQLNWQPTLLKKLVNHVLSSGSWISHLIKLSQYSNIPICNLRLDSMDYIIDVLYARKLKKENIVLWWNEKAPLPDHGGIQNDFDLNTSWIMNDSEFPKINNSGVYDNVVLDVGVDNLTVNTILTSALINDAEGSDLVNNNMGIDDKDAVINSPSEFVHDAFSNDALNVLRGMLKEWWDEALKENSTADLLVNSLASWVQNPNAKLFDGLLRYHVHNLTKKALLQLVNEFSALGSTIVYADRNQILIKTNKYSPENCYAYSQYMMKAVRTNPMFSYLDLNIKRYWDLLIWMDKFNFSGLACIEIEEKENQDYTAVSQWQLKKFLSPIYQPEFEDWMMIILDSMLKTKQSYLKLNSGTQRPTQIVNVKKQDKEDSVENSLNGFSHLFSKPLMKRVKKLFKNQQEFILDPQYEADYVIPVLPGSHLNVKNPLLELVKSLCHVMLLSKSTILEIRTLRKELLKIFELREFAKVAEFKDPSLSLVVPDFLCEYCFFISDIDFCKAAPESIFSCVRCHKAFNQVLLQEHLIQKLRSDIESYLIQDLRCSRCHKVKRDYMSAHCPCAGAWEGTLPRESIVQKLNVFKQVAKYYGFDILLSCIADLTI
Pol epsilon WT (holoenzyme), sequence (P24482 whole entry, chain 2 of 4): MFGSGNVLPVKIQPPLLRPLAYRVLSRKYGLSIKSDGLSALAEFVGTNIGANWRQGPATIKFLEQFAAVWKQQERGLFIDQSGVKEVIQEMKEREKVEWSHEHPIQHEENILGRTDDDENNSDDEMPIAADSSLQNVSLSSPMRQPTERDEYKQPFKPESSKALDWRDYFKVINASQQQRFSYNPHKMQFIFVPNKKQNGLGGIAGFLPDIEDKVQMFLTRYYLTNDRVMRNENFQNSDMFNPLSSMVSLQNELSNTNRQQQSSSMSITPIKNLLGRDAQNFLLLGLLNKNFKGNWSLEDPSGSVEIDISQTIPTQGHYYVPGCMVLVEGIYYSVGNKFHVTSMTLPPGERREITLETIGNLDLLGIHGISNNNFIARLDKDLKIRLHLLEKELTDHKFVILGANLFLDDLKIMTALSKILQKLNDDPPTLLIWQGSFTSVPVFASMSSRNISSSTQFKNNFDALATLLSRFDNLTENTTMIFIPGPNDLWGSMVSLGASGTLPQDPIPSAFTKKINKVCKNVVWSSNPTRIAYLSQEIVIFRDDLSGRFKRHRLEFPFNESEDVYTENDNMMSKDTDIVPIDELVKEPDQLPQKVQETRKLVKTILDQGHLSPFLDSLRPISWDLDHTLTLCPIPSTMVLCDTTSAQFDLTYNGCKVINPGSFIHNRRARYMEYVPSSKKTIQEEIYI
Pol epsilon WT (holoenzyme), sequence (P27344 whole entry, chain 3 of 4): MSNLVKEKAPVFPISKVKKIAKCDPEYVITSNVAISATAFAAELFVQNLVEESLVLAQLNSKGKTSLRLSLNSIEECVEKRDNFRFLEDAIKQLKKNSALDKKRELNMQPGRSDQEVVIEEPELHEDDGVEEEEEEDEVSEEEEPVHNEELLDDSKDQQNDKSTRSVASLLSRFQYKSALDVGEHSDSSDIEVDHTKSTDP
Pol epsilon WT (holoenzyme), sequence (Q04603 whole entry, chain 4 of 4): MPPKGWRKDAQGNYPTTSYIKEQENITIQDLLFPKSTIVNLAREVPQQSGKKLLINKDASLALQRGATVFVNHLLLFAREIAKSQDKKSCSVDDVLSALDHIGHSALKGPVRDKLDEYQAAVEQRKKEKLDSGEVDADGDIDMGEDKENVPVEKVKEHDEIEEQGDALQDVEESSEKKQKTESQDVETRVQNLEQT

B1: P50/T80-1 (mixed)
DNA 1: TGGAACTTTGTACGTCCAAAATTGAATGACTTGGCCAACTACACTAAGTT
DNA 2: GGATTACGAAACGAAGCACATTAGCCCTGGAACTTAGTGTAGTTGGCCAAGTCATTCAATTTTGGACGTACAAAGTTCCA
Turning to B1, the binding result is listed as “binds”.
